B1: ZNF277 (parent)
chain: ILREELQKQRLREILEQQQQERND

Variants of: B1
Assay: protein stability index of a GFP-peptide fusion (GPS, HEK-293T) (PSI 1-6); higher = more stable
Conditions: c terminus: a fixed tail appended
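Note: lentivirally expressed fusions sorted by FACS into six bins by GFP to DsRed ratio, PSI derived from sequencing read proportions per bin multiplied by bin number.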

Variant | protein stability index
ILREELQKQRAREILEQQQQERND [L11A] | 4.83
ILREELQKQRFREILEQQQQERND [L11F] | 4.09
ILREELQKQRNREILEQQQQERND [L11N] | 4.76
ILREELQKQRDREILEQQQQERND [L11D] | 4.8
ILREELQKQRIREILEQQQQERND [L11I] | 4.52
ILREELQKQRKREILEQQQQERND [L11K] | 4.31
ILREELQKQRMREILEQQQQERND [L11M] | 4.91
ILREELQKQRRREILEQQQQERND [L11R] | 4.37
ILREELQKQRSREILEQQQQERND [L11S] | 4.68
ILREELQKQRGREILEQQQQERND [L11G] | 5.22
ILREELQKQRCREILEQQQQERND [L11C] | 4.71
ILREELQKQRTREILEQQQQERND [L11T] | 4.66
ILREELQKQRHREILEQQQQERND [L11H] | 4.94
ILREELQKQRPREILEQQQQERND [L11P] | 4.38
ILREELQKQREREILEQQQQERND [L11E] | 5.06
ILREELQKQRQREILEQQQQERND [L11Q] | 5.05
ILREELQKQYLREILEQQQQERND [R10Y] | 4.3
ILREELQKQKLREILEQQQQERND [R10K] | 4.59
ILREELQKQCLREILEQQQQERND [R10C] | 3.28
ILREELQKQVLREILEQQQQERND [R10V] | 4.07
ILREELQKQDLREILEQQQQERND [R10D] | 5.47
ILREELQKQFLREILEQQQQERND [R10F] | 3.47
ILREELQKQHLREILEQQQQERND [R10H] | 4.85
ILREELQKQWLREILEQQQQERND [R10W] | 3.23

Variant | protein stability index
ILREELQKQNLREILEQQQQERND [R10N] | 4.51
ILREELQKQTLREILEQQQQERND [R10T] | 4.59
ILREELQKQPLREILEQQQQERND [R10P] | 4.83
ILREELQKQLLREILEQQQQERND [R10L] | 2.56
ILREELQKQALREILEQQQQERND [R10A] | 4.38
ILREELQKQGLREILEQQQQERND [R10G] | 4.65
ILREELQKQSLREILEQQQQERND [R10S] | 4.7
ILREELQKQILREILEQQQQERND [R10I] | 3.41
ILREELQKQMLREILEQQQQERND [R10M] | 3.58
ILREELQKQELREILEQQQQERND [R10E] | 4.83
ILREEWQKQRLREILEQQQQERND [L6W] | 5.58
ILREETQKQRLREILEQQQQERND [L6T] | 4.75
ILREEVQKQRLREILEQQQQERND [L6V] | 4.65
ILREEYQKQRLREILEQQQQERND [L6Y] | 4.22
ILREESQKQRLREILEQQQQERND [L6S] | 4.44
ILREELCKQRLREILEQQQQERND [Q7C] | 4.24
ILREELEKQRLREILEQQQQERND [Q7E] | 5.22
ILREELNKQRLREILEQQQQERND [Q7N] | 4.44
ILREELVKQRLREILEQQQQERND [Q7V] | 3.58
ILREELFKQRLREILEQQQQERND [Q7F] | 2.93
ILREELHKQRLREILEQQQQERND [Q7H] | 4.47
ILREELIKQRLREILEQQQQERND [Q7I] | 2.9
ILREELMKQRLREILEQQQQERND [Q7M] | 3.74
ILREELLKQRLREILEQQQQERND [Q7L] | 3.64

Variant | protein stability index
ILREELGKQRLREILEQQQQERND [Q7G] | 5.06
ILREELWKQRLREILEQQQQERND [Q7W] | 2.37
ILREELAKQRLREILEQQQQERND [Q7A] | 4.12
ILREELDKQRLREILEQQQQERND [Q7D] | 4.26
ILREELSKQRLREILEQQQQERND [Q7S] | 4.11
ILREELRKQRLREILEQQQQERND [Q7R] | 4.1
ILREELKKQRLREILEQQQQERND [Q7K] | 3.46
ILREELTKQRLREILEQQQQERND [Q7T] | 3.62
ILREELPKQRLREILEQQQQERND [Q7P] | 5
ILREELQSQRLREILEQQQQERND [K8S] | 4.81
ILREELQYQRLREILEQQQQERND [K8Y] | 4.11
ILREELQRQRLREILEQQQQERND [K8R] | 3.66
ILREELQLQRLREILEQQQQERND [K8L] | 3.63
ILREELQMQRLREILEQQQQERND [K8M] | 4.12
ILREELQPQRLREILEQQQQERND [K8P] | 5.07
ILREELQAQRLREILEQQQQERND [K8A] | 4.7
ILREELQWQRLREILEQQQQERND [K8W] | 3.82
ILREELQHQRLREILEQQQQERND [K8H] | 4.41
ILREELQCQRLREILEQQQQERND [K8C] | 3.96
ILREELQGQRLREILEQQQQERND [K8G] | 4.82
ILREELQEQRLREILEQQQQERND [K8E] | 5.3
ILREELQVQRLREILEQQQQERND [K8V] | 4.07
ILREELQQQRLREILEQQQQERND [K8Q] | 4.98
ILREELQIQRLREILEQQQQERND [K8I] | 3.1

Variant | protein stability index
ILREELQFQRLREILEQQQQERND [K8F] | 4.38
ILREELQDQRLREILEQQQQERND [K8D] | 4.43
ILREELQNQRLREILEQQQQERND [K8N] | 4.53
ILREELQTQRLREILEQQQQERND [K8T] | 4
ILREELQKWRLREILEQQQQERND [Q9W] | 3.53
ILREELQKVRLREILEQQQQERND [Q9V] | 4.15
ILREELQKIRLREILEQQQQERND [Q9I] | 4.18
ILREELQKRRLREILEQQQQERND [Q9R] | 4.41
ILREELQKCRLREILEQQQQERND [Q9C] | 4.41
ILREELQKKRLREILEQQQQERND [Q9K] | 4.42
ILREELQKNRLREILEQQQQERND [Q9N] | 3.79
ILREELQKYRLREILEQQQQERND [Q9Y] | 3.9
ILREELQKMRLREILEQQQQERND [Q9M] | 4.32
ILREELQKPRLREILEQQQQERND [Q9P] | 4.52
ILREELQKGRLREILEQQQQERND [Q9G] | 4.05
ILREELQKFRLREILEQQQQERND [Q9F] | 4.12
ILREELQKSRLREILEQQQQERND [Q9S] | 4.41
ILREELQKHRLREILEQQQQERND [Q9H] | 5.05
ILREELQKTRLREILEQQQQERND [Q9T] | 4.01
ILREELQKLRLREILEQQQQERND [Q9L] | 4.41
ILREELQKERLREILEQQQQERND [Q9E] | 3.04
ILREELQKDRLREILEQQQQERND [Q9D] | 4.98

Source: the supplement of paper PMC10567573
